The target of experiment [1] is T1, coagulation factor Xa (human, UniProt P00742). The experiment is described as follows: saturation binding of ^125 I-factor Xa (0.45-36 nM) to EPR-1 CHO transfectants, 2.5 mM CaCl2. As to the method: In FIG. A, wild-type (WT) CHO cells (closed squares) or EPR-1 CHO transfectants (closed circles) were incubated with increasing concentrations of ^125I-factor Xa (0.45–36 nM) for 15 minutes at 22° C. In the presence of 2.5 mM CaCl_2. Non-specific binding was assessed in the presence of a 50-fold molar excess of unlabeled factor Xa and was subtracted from the total to calculate net specific binding. Data are the mean±S.E.M. of two independent experiments. ^125I-factor Xa bound at saturation (27 nM) to EPR-1 CHO transfectants corresponded to 729,000±102,000 molecules/cell. […] Thrombin formation in the presence or in the absence of anti-EPR-1 mAb 9D4 (Altieri, et al., Id. (1990)) was assessed by a sensitive clotting assay as described (Altieri, et al., Id. (1989)). Data are expressed as mean±S.E.M. of two independent experiments.
The experimental procedures for the isolation, characterization and ^125I-labeling of factor Xa have been described previously (Altieri, et al., Id. (1989)). […] In the presence of 2.5 mM CaCl_2, before separation of free from cell-associated radioactivity by centrifugation through mixture of silicone oil (Dow Corning, New Bedford, Mass.) at 15,000 xg for 5 minutes at 22° C. Non-specific binding was assessed in the presence of a 50-fold molar excess of unlabeled factor Xa and was subtracted from the total to calculate net specific binding. […]

Experiment [2] addresses T1, coagulation factor Xa. The experiment is described as follows: saturation binding of ^125 I-Xa to HuT 78* cells, 2.5 mM CaCl2. As to the method:
The procedures for the isolation, characterization, and ^125I-labelling of factor Xa were as described previously by Altieri, et al., *J. Biol. Chem.* 264: 2969 (1989). The interaction of ^125I-Xa with HuT 78* cells was analyzed by incubating increasing concentrations of ^125I-Xa (0.45 to 36 nM) with cell suspension at 1.5 to 2×10^7/ml in the presence of 2.5 mM CaCl_2 for 20 minutes at room temperature. At the end of the incubation, the reaction was terminated by centrifugation of aliquots of the cell suspension at 12,000×g for 2 minutes through a mixture of silicone oil to separate free from cell-associated radioactivity. Nonspecific binding was quantified in the presence of 50-fold molar excess of unlabelled factor Xa added at the start of the incubation reaction, and was subtracted from the total to yield net specific binding. In some studies, aliquots of HuT 78* cells were preincubated with 50 µg/ml of mAb 9D4 for 30 minutes at room temperature before the addition of serial concentrations of ^125I-Xa.
HuT 78* cells reacting with the rabbit polyclonal antiserum B78.9 were isolated to 94.2% purity by fluorescence sorting and cloned by limiting dilution. […] The reaction was terminated by centrifugation through mixture of silicone oils and ^125I-Xa specific binding to HuT 78* cells was calculated in the presence or absence of anti-EPR-1 mAb 9D4.

The results in this text go back to patent publication US6072028, “EPR-1 proteins, polypeptides, and nucleic acid molecules encoding same” (The Scripps Research Institute, dated 2000).

B1: Effector cell Protease Receptor-1 (EPR-1), on the cell surface (receptor)
chain: MTSRGFQRSCNNPPCSSMTGRRANQIHHLTPDFSLRELLPPKKAGTWADCVSPPCGERDRCEGWADRHTACSSPASTCQVHTQDCDSLNNMRSRHIHCGRLCHANKAVSSSKRDTAFFLPHFSPGKPGNQNSKNEPPKKRERERSSHCYPAAPAAQAEAPLVPLSRQNKSTVETSNLKMLISFPKTLLRGPQEGWWHQGINPGSGAATLGPGSSERPQSIEASCSMARRTFFAVSSNSFFLLLVSFAILFLALSLSSFKNSPRVNSSNCFLTERKAQPDECFLCSSMGSSSGSQPSSSLKQKKHWAKSGSFSVGQWMKPASAIRSGVQRSPPRRASS
As a reminder, the Kd is a measure of binding affinity in units of concentration. Low readings indicate higher affinity, high ones lower affinity. B1: the figures for the Kd with coagulation factor Xa [1] and with coagulation factor Xa [2] were 10 to 15 nM and 10 to 20 nM, respectively.
